The values that follow come from patent US20160201097A1, “Materials and Methods of Producing 7-Carbon Monomers” (INVISTA North America S.á.r.l., priority 2014, published 2016).

What all share (type): biochemical
Data set [1] in a line: ω-transaminase activity, reverse direction: 7-aminoheptanoate to pimelate semialdehyde (L-alanine formation by RP-HPLC). As to conditions: cell free extract, 10 mM 7-aminoheptanoate, 10 mM pyruvate, pH 7.5, 25° C., 4 h; against the empty vector control (FIG. 13). The method, then: (§1) A nucleotide sequence encoding an N-terminal His-tag was added to the nucleic acid sequences from Chromobacterium violaceum, Pseudomonas syringae, Rhodobacter sphaeroides, and Vibrio fluvialis encoding the ω-transaminases of SEQ ID NOs: 7, 9, 10 and 12, respectively (see FIG. 6) such that N-terminal HIS tagged ω-transaminases could be produced. Each of the resulting modified genes was cloned into a pET21a expression vector under control of the T7 promoter and each expression vector was transformed into a BL21[DE3] E. coli host. The resulting recombinant E. coli strains were cultivated at 37° C. in a 250 mL shake flask culture containing 50 mL LB media and antibiotic selection pressure, with shaking at 230 rpm. Each culture was induced overnight at 16° C. using 1 mM IPTG.
(§2) The pellet from each induced shake flask culture was harvested via centrifugation. Each pellet was resuspended and lysed via sonication. The cell debris was separated from the supernatant via centrifugation and the cell free extract was used immediately in enzyme activity assays.
Enzyme activity assays in the reverse direction (i.e., 7-aminoheptanoate to pimelate semialdehyde) were performed in a buffer composed of a final concentration of 50 mM HEPES buffer (pH=7.5), 10 mM 7-aminoheptanoate, 10 mM pyruvate and 100 μM pyridoxyl 5′ phosphate. Each enzyme activity assay reaction was initiated by adding cell free extract of the ω-transaminase gene product or the empty vector control to the assay buffer containing the 7-aminoheptanoate and incubated at 25° C. for 4 h, with shaking at 250 rpm. The formation of L-alanine from pyruvate was quantified via RP-HPLC.

A short description of data set [2]: ω-transaminase activity, forward direction: pimelate semialdehyde to 7-aminoheptanoate (pyruvate formation by RP-HPLC). As to conditions: for acceptance of pimelate semialdehyde as substrate (conversion of L-alanine to pyruvate): cell free extract, 10 mM pimelate semialdehyde, 10 mM L-alanine, pH 7.5, 25° C., 4 h, against the empty vector control (FIG. 14); for reversibility of ω-transaminase activity: pimelate semialdehyde accepted, 7-aminoheptanoate synthesized: conclusion from reverse and forward assays of Example 1. How it is done:
as §1, §2
Enzyme activity in the forward direction (i.e., pimelate semialdehyde to 7-aminoheptanoate) was confirmed for the transaminases of SEQ ID NO 9, SEQ ID NO 10 and SEQ ID NO 12. Enzyme activity assays were performed in a buffer composed of a final concentration of 50 mM HEPES buffer (pH=7.5), 10 mM pimelate semialdehyde, 10 mM L-alanine and 100 μM pyridoxyl 5′ phosphate. Each enzyme activity assay reaction was initiated by adding a cell free extract of the ω-transaminase gene product or the empty vector control to the assay buffer containing the pimelate semialdehyde and incubated at 25° C. for 4 h, with shaking at 250 rpm. The formation of pyruvate was quantified via RP-HPLC.

Data set [3] in a line: ω-transaminase activity: 7-aminoheptanol to 7-oxoheptanol (L-alanine formation by RP-HPLC). As to conditions: for acceptance of 7-aminoheptanol as substrate (conversion of pyruvate to L-alanine): cell free extract, 10 mM 7-aminoheptanol, 10 mM pyruvate, pH 7.5, 25° C., 4 h, against the empty vector control (FIG. 17); for acceptance of 7-oxoheptanol as substrate forming 7-aminoheptanol: concluded from the reversibility of the ω-transaminase activity (Example 1). The method, then:
A nucleotide sequence encoding an N-terminal His-tag was added to the Chromobacterium violaceum, Pseudomonas syringae and Rhodobacter sphaeroides nucleic acids encoding the ω-transaminases of SEQ ID NOs: 7, 9 and 10, respectively (see FIG. 6) such that N-terminal HIS tagged ω-transaminases could be produced. The modified genes were cloned into a pET21a expression vector under the T7 promoter. Each expression vector was transformed into a BL21[DE3] E. coli host. Each resulting recombinant E. coli strain were cultivated at 37° C. in a 250 mL shake flask culture containing 50 mL LB media and antibiotic selection pressure, with shaking at 230 rpm. Each culture was induced overnight at 16° C. using 1 mM IPTG.
as §2
Enzyme activity assays in the reverse direction (i.e., 7-aminoheptanol to 7-oxoheptanol) were performed in a buffer composed of a final concentration of 50 mM HEPES buffer (pH=7.5), 10 mM 7-aminoheptanol, 10 mM pyruvate, and […] pyridoxyl 5′ phosphate. Each enzyme activity assay reaction was initiated by adding cell free extract of the ω-transaminase gene product or the empty vector control to the assay buffer containing the 7-aminoheptanol and then incubated at 25° C. for 4 h, with shaking at 250 rpm. The formation of L-alanine was quantified via RP-HPLC.

Data set [4] in a line: carboxylate reductase activity: N7-acetyl-7-aminoheptanoate to N7-acetyl-7-aminoheptanal (NADPH consumption, A340). Particulars: purified enzyme enhanced by sfp gene product, 2 mM N7-acetyl-7-aminoheptanoate, pH 7.5, room temperature, 20 min; against the empty vector control (FIG. 10). How it is done:
The activity of each of the N-terminal His-tagged carboxylate reductases of SEQ ID NOs: 3, 5, and 6 (see Examples 2 and 3, and FIG. 6) for converting N7-acetyl-7-aminoheptanoate to N7-acetyl-7-aminoheptanal was assayed in triplicate in a buffer composed of a final concentration of 50 mM HEPES buffer (pH=7.5), 2 mM N7-acetyl-7-aminoheptanoate, 10 mM MgCl2, 1 mM ATP, and 1 mM NADPH. The assays were initiated by adding purified carboxylate reductase and phosphopantetheine transferase or the empty vector control to the assay buffer containing the N7-acetyl-7-aminoheptanoate then incubated at room temperature for 20 min. The consumption of NADPH was monitored by absorbance at 340 nm.

Consider “SEQ ID NO: 10: Rhodobacter sphaeroides ω-transaminase, N-terminal HIS tagged”, for which the “acceptance of 7-aminoheptanoate as substrate (conversion of pyruvate to L-alanine)” value (“acceptance of 7-aminoheptanoate” for short) in data set [1] was “accepted 7-aminoheptanoate as substrate”. In data set [2], the “acceptance of pimelate semialdehyde as substrate (conversion of L-alanine to pyruvate)” value (from here on “acceptance of pimelate semialdehyde”) is given as “accepted pimelate semialdehyde as substrate”; the “reversibility of ω-transaminase activity: pimelate semialdehyde accepted, 7-aminoheptanoate synthesized” value (from here on “reversibility of ω-transaminase activity”) is “accepted pimelate semialdehyde as substrate and synthesized 7-aminoheptanoate as a reaction product”. Further, in data set [3], the “acceptance of 7-aminoheptanol as substrate (conversion of pyruvate to L-alanine)” value is on record as “accepted 7-aminoheptanol as substrate”; the “acceptance of 7-oxoheptanol as substrate forming 7-aminoheptanol” value is “accept 7-oxoheptanol as substrate and form 7-aminoheptanol”.

B1: SEQ ID NO: 9: Pseudomonas syringae ω-transaminase, N-terminal HIS tagged (protein, listed as Pseudomonas syringae)
chain: MSANNPQTLEWQALSSEHHLAPFSDYKQLKEKGPRIITRAEGVYLWDSEGNKILDGMSGLWCVAIGYGREELADAASKQMRELPYYNLFFQTAHPPVLELAKAISDIAPEGMNHVFFTGSGSEGNDTMLRMVRHYWALKGQPNKKTIISRVNGYHGSTVAGASLGGMTYMHEQGDLPIPGVVHIPQPYWFGEGGDMTPDEFGIWAAEQLEKKILELGVENVGAFIAEPIQGAGGVIVPPDSYWPKIKEILSRYDILFAADEVICGFGRTSEWFGSDFYGLRPDMMTIAKGLTSGYVPMGGLIVRDEIVAVLNEGGDFNHGFTYSGHPVAAAVALENIRILREEKIVERVRSETAPYLQKRLRELSDHPLVGEVRGVGLLGAIELVKDKTTRERYTDKGAGMICRTFCFDNGLIMRAVGDTMIIAPPLVISFAQIDELVEKARTCLDLTLAVLQG
modifications: N-terminal His tag
notes: Pseudomonas syringae ω-transaminase, N-terminal HIS tagged
Consider B1, for which the “acceptance of 7-aminoheptanoate” value in data set [1] is listed as “accepted 7-aminoheptanoate as substrate”. In data set [2], the “acceptance of pimelate semialdehyde” value is given as “accepted pimelate semialdehyde as substrate”; the “reversibility of ω-transaminase activity” value is “accepted pimelate semialdehyde as substrate and synthesized 7-aminoheptanoate as a reaction product”. Also, in data set [3], the “acceptance of 7-aminoheptanol as substrate (conversion of pyruvate to L-alanine)” value is “accepted 7-aminoheptanol as substrate”; the “acceptance of 7-oxoheptanol as substrate forming 7-aminoheptanol” value was “accept 7-oxoheptanol as substrate and form 7-aminoheptanol”.

B2: SEQ ID NO: 12: Vibrio fluvialis ω-transaminase, N-terminal HIS tagged (protein, listed as Vibrio fluvialis)
chain: MNKPQSWEARAETYSLYGFTDMPSLHQRGTVVVTHGEGPYIVDVNGRRYLDANSGLWNMVAGFDHKGLIDAAKAQYERFPGYHAFFGRMSDQTVMLSEKLVEVSPFDSGRVFYTNSGSEANDTMVKMLWFLHAAEGKPQKRKILTRWNAYHGVTAVSASMTGKPYNSVFGLPLPGFVHLTCPHYWRYGEEGETEEQFVARLARELEETIQREGADTIAGFFAEPVMGAGGVIPPAKGYFQAILPILRKYDIPVISDEVICGFGRTGNTWGCVTYDFTPDAIISSKNLTAGFFPMGAVILGPELSKRLETAIEAIEEFPHGFTASGHPVGCAIALKAIDVVMNEGLAENVRRLAPRFEERLKHIAERPNIGEYRGIGFMWALEAVKDKASKTPFDGNLSVSERIANTCTDLGLICRPLGQSVVLCPPFILTEAQMDEMFDKLEKALDKVFAEVA
modifications: N-terminal His tag
notes: Vibrio fluvialis ω-transaminase, N-terminal HIS tagged
Consider B2, for which the “acceptance of 7-aminoheptanoate” value in data set [1] is reported as “accepted 7-aminoheptanoate as substrate”. In data set [2], the “acceptance of pimelate semialdehyde” value was “accepted pimelate semialdehyde as substrate”; the “reversibility of ω-transaminase activity” value was “accepted pimelate semialdehyde as substrate and synthesized 7-aminoheptanoate as a reaction product”.

B3: SEQ ID NO: 3: Mycobacterium smegmatis carboxylate reductase, N-terminal HIS tagged (protein, listed as Mycobacterium smegmatis)
chain: MTSDVHDATDGVTETALDDEQSTRRIAELYATDPEFAAAAPLPAVVDAAHKPGLRLAEILQTLFTGYGDRPALGYRARELATDEGGRTVTRLLPRFDTLTYAQVWSRVQAVAAALRHNFAQPIYPGDAVATIGFASPDYLTLDLVCAYLGLVSVPLQHNAPVSRLAPILAEVEPRILTVSAEYLDLAVESVRDVNSVSQLVVFDHHPEVDDHRDALARAREQLAGKGIAVTTLDAIADEGAGLPAEPIYTADHDQRLAMILYTSGSTGAPKGAMYTEAMVARLWTMSFITGDPTPVINVNFMPLNHLGGRIPISTAVQNGGTSYFVPESDMSTLFEDLALVRPTELGLVPRVADMLYQHHLATVDRLVTQGADELTAEKQAGAELREQVLGGRVITGFVSTAPLAAEMRAFLDITLGAHIVDGYGLTETGAVTRDGVIVRPPVIDYKLIDVPELGYFSTDKPYPRGELLVRSQTLTPGYYKRPEVTASVFDRDGYYHTGDVMAETAPDHLVYVDRRNNVLKLAQGEFVAVANLEAVFSGAALVRQIFVYGNSERSFLLAVVVPTPEALEQYDPAALKAALADSLQRTARDAELQSYEVPADFIVETEPFSAANGLLSGVGKLLRPNLKDRYGQRLEQMYADIAATQANQLRELRRAAATQPVIDTLTQAAATILGTGSEVASDAHFTDLGGDSLSALTLSNLLSDFFGFEVPVGTIVNPATNLAQLAQHIEAQRTAGDRRPSFTTVHGADATEIRASELTLDKFIDAETLRAAPGLPKVTTEPRTVLLSGANGWLGRFLTLQWLERLAPVGGTLITIVRGRDDAAARARLTQAYDTDPELSRRFAELADRHLRVVAGDIGDPNLGLTPEIWHRLAAEVDLVVHPAALVNHVLPYRQLFGPNVVGTAEVIKLALTERIKPVTYLSTVSVAMGIPDFEEDGDIRTVSPVRPLDGGYANGYGNSKWAGEVLLREAHDLCGLPVATFRSDMILAHPRYRGQVNVPDMFTRLLLSLLITGVAPRSFYIGDGERPRAHYPGLTVDFVAEAVTTLGAQQREGYVSYDVMNPHDDGISLDVFVDWLIRAGHPIDRVDDYDDWVRRFETALTALPEKRRAQTVLPLLHAFRAPQAPLRGAPEPTEVFHAAVRTAKVGPGDIPHLDEALIDKYIRDLREFGLI
modifications: N-terminal His tag
notes: Mycobacterium smegmatis carboxylate reductase, N-terminal HIS tagged
As to B3, the “acceptance of N7-acetyl-7-aminoheptanoate as substrate (NADPH consumption)” value in data set [4] is reported as “accepted N7-acetyl-7-aminoheptanoate as substrate”.
